Literature values as cited in article PMC2786309 (Bioconjugate chemistry, 2009).

Columns and labels:
[1] = test system: MC1 receptor present on melanoma cells; settings: statement in method text, no reference given
[2] = test system: B16/F1 melanoma-bearing C57 mice; settings: mouse, in vivo

NDP-MSH
Affinity for the MC1 receptor [1]: picomolar affinity

^111In-DOTA-Gly-Glu-c[Lys-Nle-Glu-His-DPhe-Arg-Trp-Gly-Arg-Pro-Val-Asp] (FRWGRPVD; not fully specified; 111In-DOTA, Gly-Glu-Lys-Nle-Glu-His N-term, cyclic; printed: Phe-Arg-Trp-Gly-Arg-Pro-Val-Asp) [^111In-DOTA-GlyGlu-CycMSH]
Renal uptake reduction compared to 111In-DOTA-CycMSH [2]: 44% | Melanoma uptake ([2]; 2 h): 10.40 ± 1.40 % ID/g

^111In-DOTA-[β-Ala^3, Nle^4, Asp^5, D-Phe^7, Lys^10]-α-MSH3-10 [^111In-DOTA-MSHoct]
Tumor uptake ([2]; 4 h): 4.31 ± 0.30 % ID/g
